± gives the standard deviation of the averaged measurements.
Test: total protein half-life in vivo (active degradation + dilution); higher = more stable protein
[1] = E. coli NCM3722 delta-clpP delta-lon delta-hslV, growth: N-lim chemostat, doubling time 6 h
[2] = E. coli NCM3722 delta-clpP, growth: N-lim chemostat, doubling time 6 h
[3] = E. coli NCM3722 delta-hslV, growth: N-lim chemostat, doubling time 6 h
[4] = E. coli NCM3722 delta-lon, growth: N-lim chemostat, doubling time 6 h
[5] = E. coli NCM3722 delta-smpB, growth: N-lim chemostat, doubling time 6 h
[6] = wild type E. coli NCM3722, growth: C-lim chemostat, doubling time 3 h
[7] = wild type E. coli NCM3722, growth: C-lim chemostat, doubling time 6 h
[8] = wild type E. coli NCM3722, growth: C-lim chemostat, doubling time 12 h
[9] = wild type E. coli NCM3722, growth: N-lim chemostat, doubling time 6 h
[10] = wild type E. coli NCM3722, growth: N-lim chemostat, doubling time 12 h
[11] = wild type E. coli NCM3722, growth: P-lim chemostat, doubling time 6 h
[12] = wild type E. coli NCM3722, growth: P-lim chemostat, doubling time 12 h

| Sequence | total protein half-life in vivo [1] | total protein half-life in vivo [2] | total protein half-life in vivo [3] | total protein half-life in vivo [4] | total protein half-life in vivo [5] | total protein half-life in vivo [6] | total protein half-life in vivo [7] | total protein half-life in vivo [8] | total protein half-life in vivo [9] | total protein half-life in vivo [10] | total protein half-life in vivo [11] | total protein half-life in vivo [12] |
| --- | --- | --- | --- | --- | --- | --- | --- | --- | --- | --- | --- | --- |
| MQTPHILIVEDELVTRNTLKSIFEAEGYDVFEATDGAEMHQILSEYDINLVIMDINLPGKNGLLLARELREQANVALMFLTGRDNEVDKILGLEIGADDYITKPFNPRELTIRARNLLSRTMNLGTVSEERRSVESYKFNGWELDINSRSLIGPDGEQYKLPRSEFRAMLHFCENPGKIQSRAELLKKMTGRELKPHDRTVDVTIRRIRKHFESTPDTPEIIATIHGEGYRFCGDLED [P0A9Q1] | 5.53 ± 0.35 h | 5.61 ± 1 h | 4.95 ± 0.086 h | 5.76 ± 0.36 h | 4.87 ± 0.05 h | 2.73 ± 0.069 h | 5.78 ± 0.19 h | 9.44 ± 1.7 h | 4.76 ± 0.39 h | 8.14 ± 0.24 h | 5.18 ± 0.058 h | 10.3 ± 0.2 h |
| MEKLRVGIVFGGKSAEHEVSLQSAKNIVDAIDKSRFDVVLLGIDKQGQWHVSDASNYLLNADDPAHIALRPSATSLAQVPGKHEHQLIDAQNGQPLPTVDVIFPIVHGTLGEDGSLQGMLRVANLPFVGSDVLASAACMDKDVTKRLLRDAGLNIAPFITLTRANRHNISFAEVESKLGLPLFVKPANQGSSVGVSKVTSEEQYAIAVDLAFEFDHKVIVEQGIKGREIECAVLGNDNPQASTCGEIVLTSDFYAYDTKYIDEDGAKVVVPAAIAPEINDKIRAIAVQAYQTLGCAGMARVDVFLTPENEVVINEINTLPGFTNISMYPKLWQASGLGYTDLITRLIELALERHAADNALKTTM [P0A6J8] | 4.83 ± 0.18 h | 5.65 ± 1.4 h | 4.95 ± 0.063 h | 6.41 ± 1.5 h | 4.9 ± 0.21 h | 2.99 ± 0.12 h |  | 10.5 ± 0.68 h | 4.89 ± 0.086 h | 8.61 ± 0.1 h | 5.56 ± 0.49 h | 11.5 ± 0.22 h |
| MPYDSVYSEKRPPGTLRTAWRKFYSDASAMVGLYGCAGLAVLCIFGGWFAPYGIDQQFLGYQLLPPSWSRYGEVSFFLGTDDLGRDVLSRLLSGAAPTVGGAFVVTLAATICGLVLGTFAGATHGLRSAVLNHILDTLLAIPSLLLAIIVVAFAGPSLSHAMFAVWLALLPRMVRSIYSMVHDELEKEYVIAARLDGASTLNILWFAVMPNITAGLVTEITRALSMAILDIAALGFLDLGAQLPSPEWGAMLGDALELIYVAPWTVMLPGAAIMISVLLVNLLGDGVRRAIIAGVE [P0AGH5] | 6.49 h | 6.66 h |  |  |  | 3.28 ± 0.12 h |  | 11.5 h | 6.2 ± 0.26 h | 12.8 h | 5.92 h | 13.7 h |
| MLKRCLSPLTLVNQVALIVLLSTAIGLAGMAVSGWLVQGVQGSAHAINKAGSLRMQSYRLLAAVPLSEKDKPLIKEMEQTAFSAELTRAAERDGQLAQLQGLQDYWRNELIPALMRAQNRETVSADVSQFVAGLDQLVSGFDRTTEMRIETVVLVHRVMAVFMALLLVFTIIWLRARLLQPWRQLLAMASAVSHRDFTQRANISGRNEMAMLGTALNNMSAELAESYAVLEQRVQEKTAGLEHKNQILSFLWQANRRLHSRAPLCERLSPVLNGLQNLTLLRDIELRVYDTDDEENHQEFTCQPDMTCDDKGCQLCPRGVLPVGDRGTTLKWRLADSHTQYGILLATLPQGRHLSHDQQQLVDTLVEQLTATLALDRHQERQQQLIVMEERATIARELHDSIAQSLSCMKMQVSCLQMQGDALPESSRELLSQIRNELNASWAQLRELLTTFRLQLTEPGLRPALEASCEEYSAKFGFPVKLDYQLPPRLVPSHQAIHLLQIAREALSNALKHSQASEVVVTVAQNDNQVKLTVQDNGCGVPENAIRSNHYGMIIMRDRAQSLRGDCRVRRRESGGTEVVVTFIPEKTFTDVQGDTHE [P0AFA2] | 6.01 ± 0.078 h | 6.25 ± 0.066 h |  | 5.32 ± 0.25 h | 5.44 ± 0.34 h | 3.11 ± 0.058 h | 5.44 ± 0.39 h | 10.9 ± 0.31 h | 5.65 ± 0.069 h | 11.1 ± 0.78 h | 6.05 ± 0.12 h | 11 ± 1.5 h |
| MQKEQLSALMDGETLDSELLNELAHNPEMQKTWESYHLIRDSMRGDTPEVLHFDISSRVMAAIEEEPVRQPATLIPEAQPAPHQWQKMPFWQKVRPWAAQLTQMGVAACVSLAVIVGVQHYNGQSETSQQPETPVFNTLPMMGKASPVSLGVPSEATANNGQQQQVQEQRRRINAMLQDYELQRRLHSEQLQFEQAQTQQAAVQVPGIQTLGTQSQ [P0AFX7] |  |  |  |  |  |  | 0.455 ± 0.09 h | 0.469 h | 0.895 ± 0.046 h | 0.953 ± 0.18 h | 0.801 h | 1.03 ± 0.45 h |
| MQKLKQQVFEANMELPRYGLVTFTWGNVSAIDRERGLVVIKPSGVAYETMKAADMVVVDMSGKVVEGEYRPSSDTATHLELYRRYPSLGGIVHTHSTHATAWAQAGLAIPALGTTHADYFFGDIPCTRGLSEEEVQGEYELNTGKVIIETLGNAEPLHTPGIVVYQHGPFAWGKDAHDAVHNAVVMEEVAKMAWIARGINPQLNHIDSFLMNKHFMRKHGPNAYYGQK | 4.02 ± 1.1 h |  |  |  |  |  |  |  |  |  |  |  |
| MFDIGVNLTSSQFAKDRDDVVACAFDAGVNGLLITGTNLRESQQAQKLARQYSSCWSTAGVHPHDSSQWQAATEEAIIELAAQPEVVAIGECGLDFNRNFSTPEEQERAFVAQLRIAADLNMPVFMHCRDAHERFMTLLEPWLDKLPGAVLHCFTGTREEMQACVAHGIYIGITGWVCDERRGLELRELLPLIPAEKLLIETDAPYLLPRDLTPKPSSRRNEPAHLPHILQRIAHWRGEDAAWLAATTDANVKTLFGIAF | 5.07 ± 0.43 h | 4.32 ± 0.31 h |  | 5.25 ± 0.68 h | 3.97 ± 0.48 h | 2.67 h | 5.44 ± 0.34 h | 8.95 ± 0.15 h | 5.25 ± 1 h | 8.13 ± 1.8 h | 4.15 ± 0.38 h | 9.01 ± 0.23 h |
| MPLVIVAIGVILLLLLMIRFKMNGFIALVLVALAVGLMQGMPLDKVIGSIKAGVGGTLGSLALIMGFGAMLGKMLADCGGAQRIATTLIAKFGKKHIQWAVVLTGFTVGFALFYEVGFVLMLPLVFTIAASANIPLLYVGVPMAAALSVTHGFLPPHPGPTAIATIFNADMGKTLLYGTILAIPTVILAGPVYARVLKGIDKPIPEGLYSAKTFSEEEMPSFGVSVWTSLVPVVLMAMRAIAEMILPKGHAFLPVAEFLGDPVMATLIAVLIAMFTFGLNRGRSMDQINDTLVSSIKIIAMMLLIIGGGGAFKQVLVDSGVDKYIASMMHETNISPLLMAWSIAAVLRIALGSATVAAITAGGIAAPLIATTGVSPELMVIAVGSGSVIFSHVNDPGFWLFKEYFNLTIGETIKSWSMLETIISVCGLVGCLLLNMVI |  | 6.71 ± 1 h | 5.83 ± 0.38 h | 6.2 ± 0.55 h | 6.06 ± 0.3 h |  |  | 10 ± 0.67 h | 5.75 h | 13 h |  |  |
